In experiment [1] the target is PtuA of retron Ec78, wild type, His-Sumo tagged (E. coli ECONIH5). The experiment is described as follows: SEC. In general terms: In gel filtration, larger molecules generally elute earlier.
Experiment [2] deals with PtuA-E396Q of retron Ec78 (ATPase-deficient mutant), as expressed from the Ec78 operon (E. coli ECONIH5). The experiment is described as follows: cryo-EM structure.
Experiment [3] addresses PtuA-Q361L of retron Ec78, His-Sumo tagged, co-expressed with PtuB without the retron (E. coli ECONIH5). The experiment is described as follows: cryo-EM structure.

On to “PtuA of retron Ec78, wild type, His-Sumo tagged (enzyme)”, for which, in experiment [1], the stoichiometry N – broadly, a count of units in the complex or per binding partner – stood at 4. In turn, “PtuA-E396Q of retron Ec78 (ATPase-deficient mutant), as expressed from the Ec78 operon (enzyme)” returned a stoichiometry N in experiment [2] of 4.

“PtuA-Q361L of retron Ec78, His-Sumo tagged, co-expressed with PtuB without the retron (enzyme)”: the stoichiometry N in experiment [3] came to 4.

“PtuB of retron Ec78 with C-terminal His-tag, as expressed from the Ec78 operon (enzyme)” had a stoichiometry N (PtuB subunits for four PtuA subunits) in experiment [2] of 2. For the substance “PtuB of retron Ec78, co-expressed with His-Sumo-PtuA from pRSF-Duet (enzyme)”, the stoichiometry N (PtuB subunits for four PtuA subunits) in experiment [3] was found to be 2.

In experiment [2], “Reverse transcriptase of retron Ec78 (enzyme)” returned a stoichiometry N (RT for four PtuA subunits) of 2 and a stoichiometry N (RT–ncRNA–msDNA for four PtuA subunits) of 1.

Source of the values: PMC12819146.
